Assay results as given in publication PMC5612953, “Stable MOB1 interaction with Hippo/MST is not essential for development and tissue growth control” (Nature Communications, 2017).
Substitutions are numbered along the chain they refer to. Numbers in names are those of the source.

T1: phospho-MOB1(K104E/K105E), full length, recombinant (human, UniProt Q9H8S9 1-216, K104E | K105E, phosphorylated in vitro by MST2 (residues 2-308); the paper names Thr12 and Thr35 as the MST1/2 phosphorylation sites of MOB1)
T1 construct: human MOB1A, full length; source: E. coli, purified (Ni-NTA), then phosphorylated in vitro by MST2 (2-308)
T1 sequence (looked up): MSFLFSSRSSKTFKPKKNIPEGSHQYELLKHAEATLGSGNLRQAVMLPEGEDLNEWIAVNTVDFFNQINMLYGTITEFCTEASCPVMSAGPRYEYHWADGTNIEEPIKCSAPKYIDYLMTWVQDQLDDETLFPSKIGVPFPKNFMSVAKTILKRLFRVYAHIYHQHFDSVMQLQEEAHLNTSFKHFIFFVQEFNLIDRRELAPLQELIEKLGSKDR

T2: human MST2 (residues 2-392) (human, UniProt Q13188 2-392)
T2 construct: human MST2, residues 2-392; also called MST2 (2-392); source: E. coli BL21(DE3), purified (Ni-NTA)
T2 sequence (looked up): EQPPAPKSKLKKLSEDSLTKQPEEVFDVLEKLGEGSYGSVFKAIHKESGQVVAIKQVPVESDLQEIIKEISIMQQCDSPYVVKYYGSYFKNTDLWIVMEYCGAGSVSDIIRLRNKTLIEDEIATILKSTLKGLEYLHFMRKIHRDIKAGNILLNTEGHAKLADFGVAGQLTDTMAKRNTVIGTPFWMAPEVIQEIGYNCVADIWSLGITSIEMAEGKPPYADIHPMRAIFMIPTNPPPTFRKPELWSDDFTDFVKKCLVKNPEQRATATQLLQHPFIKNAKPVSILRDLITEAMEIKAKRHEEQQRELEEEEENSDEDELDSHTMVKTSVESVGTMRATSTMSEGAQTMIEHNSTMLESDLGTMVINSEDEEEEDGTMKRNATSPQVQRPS

T3: unphosphorylated full-length MOB1A(K104E/K105E), recombinant (human, UniProt Q9H8S9 1-216, K104E | K105E)
T3 sequence: T1 sequence (looked up)

T4: phospho-MOB1(K104E/K105E), full length, recombinant (human, UniProt Q9H8S9 1-216, K104E | K105E, phosphorylated in vitro by MST2 (residues 2-308); the paper names Thr12 and Thr35 as the MST1/2 phosphorylation sites of MOB1)
T4 sequence: T1 sequence (looked up)

T5: unphosphorylated full-length MOB1A(K104E/K105E), recombinant (human, UniProt Q9H8S9 1-216, K104E | K105E)
T5 construct: human MOB1A, full length; also called Unphosphorylated MOB1(K104E/K105E); MOB1(K104E/K104E); source: E. coli, purified as MOB1A (33-216) (Ni-NTA)
T5 sequence (looked up): T1 sequence (looked up)

T6: non-phosphorylated full-length MOB1A wild-type (human, UniProt Q9H8S9 1-216)
T6 construct: human MOB1A, full length; pET28a vector; also called unphosphorylated full-length MOB1; non-phosphorylated MOB1; source: E. coli, purified as MOB1A (33-216) (Ni-NTA)
T6 sequence (looked up): T1 sequence (looked up) with E104K, E105K

T7: human MOB1A (residues 33-216) (human, UniProt Q9H8S9 33-216)
T7 construct: human MOB1A, residues 33-216; modified pET28a vector; a zinc is associated with MOB1 in the structure; also called MOB1 (33-216); MOB1A (33-216); source: E. coli BL21(DE3), purified (Ni-NTA; complex by Superdex 200)
T7 sequence (looked up): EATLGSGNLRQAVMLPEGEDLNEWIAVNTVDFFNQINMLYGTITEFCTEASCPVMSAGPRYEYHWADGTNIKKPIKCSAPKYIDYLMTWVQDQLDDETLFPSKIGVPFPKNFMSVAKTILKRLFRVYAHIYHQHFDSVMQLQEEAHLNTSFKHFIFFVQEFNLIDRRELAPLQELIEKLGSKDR

B1: human LATS1 (residues 618-697) (domain or fragment, UniProt O95835 618-697, looked up)
chain: RKNKKDEERRESRIQSYSPQAFKFFMEQHVENVLKSHQQRLHRKKQLENEMMRVGLSQDAQDQMRKMLCQKESNYIRLKR
notes: human LATS1, residues 618-697; also called LATS1 (618-697); source: E. coli BL21(DE3), purified (Ni-NTA)
B2: recombinant full-length MOB1A(D63V) (natural protein, human, UniProt Q9H8S9 1-216, looked up)
chain: T1 sequence (looked up) with D63V, E104K, E105K
notes: human MOB1A, full length; also called MOB1(D63V); source: E. coli, purified as MOB1A (33-216) (Ni-NTA)
B3: human NDR2 (residues 25-88), N-terminal regulatory domain (NTR) (domain or fragment, UniProt Q9Y2H1 25-88, looked up)
chain: KLTLENFYSNLILQHEERETRQKKLEVAMEEEGLADEEKKLRRSQHARKETEFLRLKRTRLGLD
notes: human NDR2, residues 25-88 (NTR); also called NDR2 (25-88); NTR of NDR2; source: E. coli BL21(DE3), purified (Ni-NTA)

How the values were obtained:
[1] = target: T1, phospho-MOB1(K104E/K105E), full length, …; assay: SEC; purified full-length MOB1 proteins incubated with NDR2 (25-88), LATS1 (618-697) or MST2 (2-392) at 4 °C for 20 min in assembly buffer (20 mM Tris pH 8.0, 200 mM NaCl, 5 mM DTT); HiLoad 16/60 Superdex 200; fractions by SDS-PAGE and Coomassie; for LATS1 MOB1A was first phosphorylated by MST2 (2-308); details: both partners purified
[2] = target: T2, human MST2 (residues 2-392); assay: as above; details: both partners purified
[3] = target: T3, unphosphorylated full-length …; assay: ITC
[4] = target: T4, phospho-MOB1(K104E/K105E), full length, …; assay: ITC; phosphorylated MOB1
[5] = target: T5, unphosphorylated full-length …; assay: ITC; 25 °C, ITC200; 25 mM HEPES pH 7.5, 200 mM NaCl, 1 mM EDTA; ~240 μM MOB1A injected (20 x 2 μl) into ~24 μM NDR1, NDR2, LATS1 or LATS2 fragment in the cell; single-site model; details: both partners purified
[6] = target: T1, phospho-MOB1(K104E/K105E), full length, …; assay: as above; details: both partners purified
[7] = target: T6, non-phosphorylated full-length MOB1A …; assay: as above; details: both partners purified
[8] = target: T7, human MOB1A (residues 33-216); assay: crystal structure; MOB1A (33-216) and NDR2 (25-88) incubated 1:1 at 4 °C, complex purified on Superdex 200; crystals at 14 °C in 17% PEG 3350, 0.1 M HEPES pH 7.5, 150 mM magnesium chloride; 2.10 Å; details: both partners purified
[9] = target: B2; assay: SEC; purified full-length MOB1 proteins incubated with NDR2 (25-88), LATS1 (618-697) or MST2 (2-392) at 4 °C for 20 min in assembly buffer (20 mM Tris pH 8.0, 200 mM NaCl, 5 mM DTT); HiLoad 16/60 Superdex 200; fractions by SDS-PAGE and Coomassie; for LATS1 MOB1A was first phosphorylated by MST2 (2-308); details: both partners purified

## B1
[1]
  binding result: binds

## B2
[2]
  binding result: binds

## B3
[3]
  Kd: 16.9 µM
[4]
  Kd: 0.532 µM
[5]
  binding result: binds
[6]
  binding result: binds
[7]
  binding result: binds
[8]
  binding result: binds
[9]
  binding result: binds
